# Test results from US20220290120A1.
# How the values were obtained:
# [1] = molecular target: Cas9 nickase (nCas9) (Streptococcus pyogenes) (UniProt Q99ZW2); test: cell-based or functional assay
# [2] = molecular target: catalytically inactive Cas9 (dCas9) (Streptococcus pyogenes) (UniProt Q99ZW2); test: cell-based or functional assay
substance,measurement,setting,value
AcrIIA4 anti-CRISPR peptide,"average percent of qPCR-confirmed edited cells with nCas9 Plasmid 4 (+acrIIA4), per sgRNA unit pair; without acrIIA4 (Plasmid 5) between 73% and 100%",[1],0.7 to 5.9%
same,percent enzyme expression of gusA after dCas9 induction from Plasmid 6 (with acrIIA4); X-Gluc assay in E. coli,[2],0%
same,percent enzyme expression of lacZ after dCas9 induction from Plasmid 6 (with acrIIA4); LacZ blue white screening in E. coli,[2],27.3%
same,percent expression of flhC after dCas9 induction from Plasmid 6 (with acrIIA4); swimming motility assay in E. coli,[2],100%
